Laboratory results published in US20040259770A1, “Method for determining leukocyte activation” (Rush University Medical Center, priority 2003, published 2004).
Where two headings read alike, the source gives them in different places.

B1: ^125I-labeled lactoferrin: lactoferrin radioiodinated with IODO-GEN reagent, 34,800 cpm/pmole (protein, UniProt P02788 20-710, looked up)
Lactotransferrin: GRRRSVQWCAVSQPEATKCFQWQRNMRKVRGPPVSCIKRDSPIQCIQAIAENRADAVTLDGGFIYEAGLAPYKLRPVAAEVYGTERQPRTHYYAVAVVKKGGSFQLNELQGLKSCHTGLRRTAGWNVPIGTLRPFLNWTGPPEPIEAAVARFFSASCVPGADKGQFPNLCRLCAGTGENKCAFSSQEPYFSYSGAFKCLRDGAGDVAFIRESTVFEDLSDEAERDEYELLCPDNTRKPVDKFKDCHLARVPSHAVVARSVNGKEDAIWNLLRQAQEKFGKDKSPKFQLFGSPSGQKDLLFKDSAIGFSRVPPRIDSGLYLGSGYFTAIQNLRKSEEEVAARRARVVWCAVGEQELRKCNQWSGLSEGSVTCSSASTTEDCIALVLKGEADAMSLDGGYVYTAGKCGLVPVLAENYKSQQSSDPDPNCVDRPVEGYLAVAVVRRSDTSLTWNSVKGKKSCHTAVDRTAGWNIPMGLLFNQTGSCKFDEYFSQSCAPGSDPRSNLCALCIGDEQGENKCVPNSNERYYGYTGAFRCLAENAGDVAFVKDVTVLQNTDGNNNEAWAKDLKLADFALLCLDGKRKPVTEARSCHLAMAPNHAVVSRMDKVERLKQVLLHQQAKFGRNGSDCPDKFCLFQSETKNLLFNDNTECLARLHGKTTYEKYLGPQYVAGITNLKKCSTSPLLEACEFLRK
modifications: 125I label
notes: lactoferrin radioiodinated with IODO-GEN reagent, 34,800 cpm/pmole
B2: mock-deglycosylated lactoferrin: lactoferrin given the same treatment as deglycosylated lactoferrin but in the absence of PNGase F (protein, UniProt P02788 20-710, looked up)
Lactotransferrin: GRRRSVQWCAVSQPEATKCFQWQRNMRKVRGPPVSCIKRDSPIQCIQAIAENRADAVTLDGGFIYEAGLAPYKLRPVAAEVYGTERQPRTHYYAVAVVKKGGSFQLNELQGLKSCHTGLRRTAGWNVPIGTLRPFLNWTGPPEPIEAAVARFFSASCVPGADKGQFPNLCRLCAGTGENKCAFSSQEPYFSYSGAFKCLRDGAGDVAFIRESTVFEDLSDEAERDEYELLCPDNTRKPVDKFKDCHLARVPSHAVVARSVNGKEDAIWNLLRQAQEKFGKDKSPKFQLFGSPSGQKDLLFKDSAIGFSRVPPRIDSGLYLGSGYFTAIQNLRKSEEEVAARRARVVWCAVGEQELRKCNQWSGLSEGSVTCSSASTTEDCIALVLKGEADAMSLDGGYVYTAGKCGLVPVLAENYKSQQSSDPDPNCVDRPVEGYLAVAVVRRSDTSLTWNSVKGKKSCHTAVDRTAGWNIPMGLLFNQTGSCKFDEYFSQSCAPGSDPRSNLCALCIGDEQGENKCVPNSNERYYGYTGAFRCLAENAGDVAFVKDVTVLQNTDGNNNEAWAKDLKLADFALLCLDGKRKPVTEARSCHLAMAPNHAVVSRMDKVERLKQVLLHQQAKFGRNGSDCPDKFCLFQSETKNLLFNDNTECLARLHGKTTYEKYLGPQYVAGITNLKKCSTSPLLEACEFLRK
modifications: mock-deglycosylated
B3: soluble lactoferrin: human milk lactoferrin added in solution to HSA-coated wells (protein, UniProt P02788 20-710, looked up)
Lactotransferrin: GRRRSVQWCAVSQPEATKCFQWQRNMRKVRGPPVSCIKRDSPIQCIQAIAENRADAVTLDGGFIYEAGLAPYKLRPVAAEVYGTERQPRTHYYAVAVVKKGGSFQLNELQGLKSCHTGLRRTAGWNVPIGTLRPFLNWTGPPEPIEAAVARFFSASCVPGADKGQFPNLCRLCAGTGENKCAFSSQEPYFSYSGAFKCLRDGAGDVAFIRESTVFEDLSDEAERDEYELLCPDNTRKPVDKFKDCHLARVPSHAVVARSVNGKEDAIWNLLRQAQEKFGKDKSPKFQLFGSPSGQKDLLFKDSAIGFSRVPPRIDSGLYLGSGYFTAIQNLRKSEEEVAARRARVVWCAVGEQELRKCNQWSGLSEGSVTCSSASTTEDCIALVLKGEADAMSLDGGYVYTAGKCGLVPVLAENYKSQQSSDPDPNCVDRPVEGYLAVAVVRRSDTSLTWNSVKGKKSCHTAVDRTAGWNIPMGLLFNQTGSCKFDEYFSQSCAPGSDPRSNLCALCIGDEQGENKCVPNSNERYYGYTGAFRCLAENAGDVAFVKDVTVLQNTDGNNNEAWAKDLKLADFALLCLDGKRKPVTEARSCHLAMAPNHAVVSRMDKVERLKQVLLHQQAKFGRNGSDCPDKFCLFQSETKNLLFNDNTECLARLHGKTTYEKYLGPQYVAGITNLKKCSTSPLLEACEFLRK
B4: immobilized deglycosylated lactoferrin: lactoferrin incubated with peptide N-glycosidase F for 72 hours at 37° C (protein, UniProt P02788 20-710, looked up)
Lactotransferrin: GRRRSVQWCAVSQPEATKCFQWQRNMRKVRGPPVSCIKRDSPIQCIQAIAENRADAVTLDGGFIYEAGLAPYKLRPVAAEVYGTERQPRTHYYAVAVVKKGGSFQLNELQGLKSCHTGLRRTAGWNVPIGTLRPFLNWTGPPEPIEAAVARFFSASCVPGADKGQFPNLCRLCAGTGENKCAFSSQEPYFSYSGAFKCLRDGAGDVAFIRESTVFEDLSDEAERDEYELLCPDNTRKPVDKFKDCHLARVPSHAVVARSVNGKEDAIWNLLRQAQEKFGKDKSPKFQLFGSPSGQKDLLFKDSAIGFSRVPPRIDSGLYLGSGYFTAIQNLRKSEEEVAARRARVVWCAVGEQELRKCNQWSGLSEGSVTCSSASTTEDCIALVLKGEADAMSLDGGYVYTAGKCGLVPVLAENYKSQQSSDPDPNCVDRPVEGYLAVAVVRRSDTSLTWNSVKGKKSCHTAVDRTAGWNIPMGLLFNQTGSCKFDEYFSQSCAPGSDPRSNLCALCIGDEQGENKCVPNSNERYYGYTGAFRCLAENAGDVAFVKDVTVLQNTDGNNNEAWAKDLKLADFALLCLDGKRKPVTEARSCHLAMAPNHAVVSRMDKVERLKQVLLHQQAKFGRNGSDCPDKFCLFQSETKNLLFNDNTECLARLHGKTTYEKYLGPQYVAGITNLKKCSTSPLLEACEFLRK
modifications: deglycosylated with PNGase F
notes: lactoferrin incubated with peptide N-glycosidase F for 72 hours at 37° C

Assays:
eosinophils = experiment: Eosinophil superoxide production (cytochrome c reduction) in protein-coated tissue culture wells; assay type: cell-based, human; details: 1 to 100 micrograms per milliliter of the protein, 2 hours at 37° C
Experimental: Neutrophils were isolated from venous blood of healthy adult volunteers by density gradient centrifugation through lymphocyte separation medium (BioWhittaker; Walkersville, Md.) as described previously (Haskell M. D., et al., Blood 86:4627-4637 (1995)) with one modification. Isotonicity was restored following the brief hypotonic lysis steps by the addition of 2× concentrated Hank's Balanced Salt Solution (HBSS) (Gibco; Grand Island, N.Y.) (without Ca^2+ and Mg^2+) containing 5 mM HEPES, pH 7.4. The cells were suspended in HEPES (10 mM)-buffered HBSS (with Ca^2+ and Mg^2+), pH 7.4, containing 1 milligram per milliliter of human serum albumin (HSA) (Sigma Chemical Co.) (HEPES-HBSS-HSA buffer). Neutrophil purity was routinely greater than 95 percent, with eosinophils representing the remainder of the cells. Eosinophils were isolated from the neutrophil preparations by negative selection (Hansel T. T., et al., J. Immunol. Meth. 145:105-10 (1991)) using anti-CD16 immunomagnetic beads as described by the manufacturer (Miltenyi Biotec, Inc., Auburn, Calif.). The eosinophils were suspended in HEPES-HBSS-HSA buffer. Eosinophil purity was routinely greater than 95 percent as determined by counting Wright-stained cytospin preparations. In some assays, an aliquot of the neutrophil preparation was held on ice for later use.
Superoxide production was measured essentially as described elsewhere (Motegi, Y., and H. Kita, J. Immunol. 161:4340 (1998)). Briefly, wells in a 96-well (flat bottom) tissue culture plate (Corning, Inc.; Corning, N.Y.) were coated with human milk lactoferrin (Sigma Chemical Co.) or human secretory IgA (ICN Biomedical; Aurora, Ohio) by incubation with 50 microliters of the indicated concentrations of the proteins in phosphate buffered saline (PBS) overnight at 4° C. Non-specific protein binding sites were blocked by subsequent incubation with 100 microliters of 25 milligrams per milliliter of HSA in PBS for 2 hours at 37° C., and the tissue culture wells were washed twice with PBS before use. Aliquots (5×10^4 cells) of eosinophils or neutrophils were added to the wells and were incubated in HEPES-HBSS—HSA buffer containing 50 micromolar cytochrome c (Sigma Chemical Co.) for 120 minutes at 37° C. in a Ceres UV900HDi microplate reader (Bio-Tek Instruments, Inc., Winooski, Vt.). Total incubation volume was 0.2 milliliters. Absorbance at 550 nanometers was recorded at 15-minute intervals, and superoxide production was calculated as described previously (Motegi, Y., and H. Kita, J. Immunol. 161:4340 (1998)). Results are expressed as nanomoles superoxide per 10^5 cells after subtraction of spontaneous production, which was measured in tissue culture wells coated only with HSA. GM-CSF (R & D Systems; Minneapolis, Minn.), porcine heparin (Sigma Chemical Co.), or chondroitin sulfate C (Sigma Chemical Co.) was added to the incubation mixtures in some assays as indicated.

[1] = target: lactoferrin receptors on eosinophils; experiment: Binding of 125I-labeled lactoferrin by eosinophils, Scatchard analysis; set-up: species or system human; details: three experiments, 2 hours at room temperature
Experimental: Lactoferrin (100 micrograms) was radioiodinated using IODO-GEN iodination reagent (Pierce; Rockford, Ill.) according to the procedure supplied by the manufacturer. The lactoferrin was incubated with 400 micro Curies Na^125I (PerkinElmer Life Sciences; Boston, Mass.) for 3 min, and the ^125I-labeled lactoferrin was separated from free Na^125I by chromatography through a 5-ml D-Salt dextran desalting column (Pierce) using PBS as the elution buffer. Protein concentration of the ^125I-labeled lactoferrin was measured by the BCA assay (Pierce). Specific activity of the ^125I-labeled lactoferrin was 34,800 cpm/pmole. […] Binding of ^125I-labeled lactoferrin by eosinophils was determined using a modification of previously described protocols for eosinophils. Motegi et al. J. Immunol. 161:4340 (1998); Lopez et al., J. Biol. Chem. 266:24741 (1991). Eosinophils (2×10^6) were incubated with the indicated concentrations of ^125I-labeled lactoferrin alone and in the presence of excess unlabeled lactoferrin in RPMI 1640 containing 20 mM HEPES, 0.5% BSA, and 0.1% sodium azide (Lopez et al., J. Biol. Chem. 266:24741 (1991)) in siliconized glass tubes for 2 hr at room temperature on a circular oscillating platform. In some experiments as indicated, binding was measured in the presence of excess unlabeled transferrin. Total reaction volume was 0.15 ml. Reactions were stopped by centrifugation (1300 g for 4 min) of the reaction mixture through 200 microliters FCS in a 1.5 ml microcentrifuge tube. The supernatant was removed by careful aspiration, and after quick-freezing on dry ice the tip of the tube containing the cell pellet was excised and the radioactivity was measured by gamma counting (Beckman Coulter Gamma 5500B). Specific binding was determined as the difference between total binding and binding in the presence of the excess unlabeled lactoferrin. Binding constants were determined by Scatchard analysis (Scatchard, G., Ann. N.Y. Acad. Sci. 51:660 (1949)).

Molecule | stimulation of eosinophil superoxide production (in words) (eosinophils) | Kd ([1]; mean+/−SE, listed as 125I-lactoferrin, read-out: KD, first class of receptors) [nM] | Kd ([1]; mean+/−SE, read-out: KD, first class of receptors) [nM] | Kd ([1]; read-out: KD, second class of receptors) [nM]
B1 | retained full ability to stimulate eosinophil superoxide production | ~47 | 47 | ~260
B2 | did not differ from that of control lactoferrin | – | – | –
B3 | stimulated minimal superoxide production | – | – | –
B4 | stimulated superoxide production to the same extent and in the same concentration-dependent manner as immobilized mock-deglycosylated lactoferrin | – | – | –
